The results in this text go back to US7057015B1, “Hormone receptor functional dimers and methods of their use” (The Salk Institute for Biological Studies, priority 1999, dated 2006).

In the assay the target is T1, Drosophila melanogaster ecdysone receptor (monomeric) (Drosophila melanogaster, UniProt P34021 1-878).
T1 construct: also called EcR; dmEcR
T1 sequence (looked up): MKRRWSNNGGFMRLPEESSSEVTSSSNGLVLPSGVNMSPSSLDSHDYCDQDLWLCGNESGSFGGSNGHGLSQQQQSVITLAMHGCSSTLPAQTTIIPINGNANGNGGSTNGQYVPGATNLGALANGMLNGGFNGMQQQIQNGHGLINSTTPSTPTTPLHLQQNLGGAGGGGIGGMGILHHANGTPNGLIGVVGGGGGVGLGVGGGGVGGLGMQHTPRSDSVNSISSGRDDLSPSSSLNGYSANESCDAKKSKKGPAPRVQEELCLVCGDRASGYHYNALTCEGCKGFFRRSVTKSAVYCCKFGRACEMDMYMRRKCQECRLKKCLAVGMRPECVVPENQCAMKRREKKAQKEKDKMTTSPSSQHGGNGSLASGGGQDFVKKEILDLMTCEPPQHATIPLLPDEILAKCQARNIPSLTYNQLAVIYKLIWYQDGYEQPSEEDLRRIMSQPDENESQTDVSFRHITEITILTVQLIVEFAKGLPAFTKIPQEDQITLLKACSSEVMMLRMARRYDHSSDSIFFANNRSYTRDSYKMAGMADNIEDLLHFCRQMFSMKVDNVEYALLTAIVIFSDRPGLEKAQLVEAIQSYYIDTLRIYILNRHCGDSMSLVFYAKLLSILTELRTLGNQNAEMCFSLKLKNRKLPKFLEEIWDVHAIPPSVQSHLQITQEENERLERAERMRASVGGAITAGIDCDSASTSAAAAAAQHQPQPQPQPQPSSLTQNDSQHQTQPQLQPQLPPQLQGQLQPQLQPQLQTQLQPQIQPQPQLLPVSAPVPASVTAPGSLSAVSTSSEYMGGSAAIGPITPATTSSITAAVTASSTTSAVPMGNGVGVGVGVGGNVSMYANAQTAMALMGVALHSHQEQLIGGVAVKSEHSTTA
The experiment in a line: gel mobility shift on 32P-labelled EcRE probe, proteins translated in vitro.

Description: The reactions were allowed to proceed at 23° C. for 5 minutes at which time ligand or vehicle was added and the reaction allowed to continue for 20 additional minutes. Band volumes were quantified using laser scanning densitometry.

B1: human retinoid X receptor alpha (monomeric) (receptor, UniProt P19793 1-462, looked up)
chain: MDTKHFLPLDFSTQVNSSLTSPTGRGSMAAPSLHPSLGPGIGSPGQLHSPISTLSSPINGMGPPFSVISSPMGPHSMSVPTTPTLGFSTGSPQLSSPMNPVSSSEDIKPPLGLNGVLKVPAHPSGNMASFTKHICAICGDRSSGKHYGVYSCEGCKGFFKRTVRKDLTYTCRDNKDCLIDKRQRNRCQYCRYQKCLAMGMKREAVQEERQRGKDRNENEVESTSSANEDMPVERILEAELAVEPKTETYVEANMGLNPSSPNDPVTNICQAADKQLFTLVEWAKRIPHFSELPLDDQVILLRAGWNELLIASFSHRSIAVKDGILLATGLHVHRNSAHSAGVGAIFDRVLTELVSKMRDMQMDKTELGCLRAIVLFNPDSKGLSNPAEVEALREKVYASLEAYCKHKYPEQPGRFAKLLLRLPALRSIGLKCLEHLFFFKLIGDTPIDTFLMEMLEAPHQMT
notes: also called RXR; hRXR
Turning to B1, the binding result is “binds”.

B2: Drosophila melanogaster ultraspiracle protein (monomeric) (receptor, UniProt P20153 1-508, looked up)
chain: MDNCDQDASFRLSHIKEEVKPDISQLNDSNNSSFSPKAESPVPFMQAMSMVHVLPGSNSASSNNNSAGDAQMAQAPNSAGGSAAAAVQQQYPPNHPLSGSKHLCSICGDRASGKHYGVYSCEGCKGFFKRTVRKDLTYACRENRNCIIDKRQRNRCQYCRYQKCLTCGMKREAVQEERQRGARNAAGRLSASGGGSSGPGSVGGSSSQGGGGGGGVSGGMGSGNGSDDFMTNSVSRDFSIERIIEAEQRAETQCGDRALTFLRVGPYSTVQPDYKGAVSALCQVVNKQLFQMVEYARMMPHFAQVPLDDQVILLKAAWIELLIANVAWCSIVSLDDGGAGGGGGGLGHDGSFERRSPGLQPQQLFLNQSFSYHRNSAIKAGVSAIFDRILSELSVKMKRLNLDRRELSCLKAIILYNPDIRGIKSRAEIEMCREKVYACLDEHCRLEHPGDDGRFAQLLLRLPALRSISLKCQDHLFLFRITSDRPLEELFLEQLEAPPPPGLAMKLE
notes: also called Usp; dmUsp
As to B2, the binding result is “binds”.
